Experimental data reported in patent US20250043302A1, “MUTATED HYDROXYPHENYLPYRUVATE DIOXYGENASE POLYPEPTIDE, AND CODING GENE AND USE THEREOF” (BEIJING DABEINONG BIOTECHNOLOGY CO., LTD., priority 2021, published 2025).

Legend:
Assay type in all cases: in vivo
[1] = system: Arabidopsis thaliana T1 plants; test: Topramezone tolerance of transgenic Arabidopsis thaliana T1 plants (spray, bleached leaf area grade, damage score); details: 7 DAT, Table 4; for Classification and statistics of the grade of pesticide damage: Grade 0 / Classification and statistics of the grade of pesticide damage: Grade 1 / Classification and statistics of the grade of pesticide damage: Grade 2 / Classification and statistics of the grade of pesticide damage: Grade 3: number of plants; for Scores: pesticide damage score 0-100
Procedure, shortened: (§1)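 Read-out: per-plant damage grade 0–3 from proportion of bleached leaf area at 7 DAT (1 <50%, 2 >50%, 3 100%). Plants were T1 transformants, glufosinate-selected, plus wild-type CK, sprayed 18 days post-sowing. Rates: topramezone 25–200, isoxaflutole 35–280, mesotrione 52.5–420 g ai/ha.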

[2] = system: Arabidopsis thaliana T1 plants; test: Isoxaflutole tolerance of transgenic Arabidopsis thaliana T1 plants (spray, bleached leaf area grade, damage score); design: Scores (pesticide damage): scale not given here; details: spray, Arabidopsis thaliana T1 plants; for Classification and statistics of the grade of pesticide damage: Grade 0 (number of plants) / Classification and statistics of the grade of pesticide damage: Grade 1 (number of plants) / Classification and statistics of the grade of pesticide damage: Grade 2 (number of plants) / Classification and statistics of the grade of pesticide damage: Grade 3 (number of plants): 16 plants
Procedure, shortened: as §1

[3] = system: Arabidopsis thaliana T1 plants; test: Mesotrione tolerance of transgenic Arabidopsis thaliana T1 plants (spray, bleached leaf area grade, damage score); design: Scores: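 damage score 0-100 computed as Σ(N×S)/(T×M)×100 over grades 0-3 with higher meaning more damage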; details: Arabidopsis thaliana T1 plants; for Grade 0 (classification and statistics of the grade of pesticide damage; number of plants) / Grade 1 (classification and statistics of the grade of pesticide damage; number of plants) / Grade 2 (classification and statistics of the grade of pesticide damage; number of plants) / Grade 3 (classification and statistics of the grade of pesticide damage; number of plants): 16 plants
Procedure, shortened: as §1

[4] = isoxaflutole 35 g ai/ha (0.5x field concentration)
[5] = isoxaflutole 70 g ai/ha (1x field concentration)

Molecule | Classification and statistics of the grade of pesticide damage: Grade 0 ([1]; topramezone 25 g ai/ha (1×)) | Classification and statistics of the grade of pesticide damage: Grade 1 ([1]; topramezone 25 g ai/ha (1×)) | Classification and statistics of the grade of pesticide damage: Grade 2 ([1]; topramezone 25 g ai/ha (1×)) | Classification and statistics of the grade of pesticide damage: Grade 3 ([1]; topramezone 25 g ai/ha (1×)) | Classification and statistics of the grade of pesticide damage: Grade 0 ([1]; topramezone 100 g ai/ha (4×)) | Classification and statistics of the grade of pesticide damage: Grade 1 ([1]; topramezone 100 g ai/ha (4×)) | Classification and statistics of the grade of pesticide damage: Grade 2 ([1]; topramezone 100 g ai/ha (4×)) | Classification and statistics of the grade of pesticide damage: Grade 3 ([1]; topramezone 100 g ai/ha (4×)) | Scores ([1]; topramezone 25 g ai/ha (1×)) | Scores ([1]; topramezone 100 g ai/ha (4×)) | Resistance evaluation ([1]; topramezone 25 g ai/ha (1×)) | Resistance evaluation ([1]; topramezone 100 g ai/ha (4×)) | Resistance evaluation [2, 4] | Scores (pesticide damage) [2, 4] | Classification and statistics of the grade of pesticide damage: Grade 0 (number of plants) [2, 4] | Classification and statistics of the grade of pesticide damage: Grade 1 (number of plants) [2, 4] | Classification and statistics of the grade of pesticide damage: Grade 2 (number of plants) [2, 4] | Classification and statistics of the grade of pesticide damage: Grade 3 (number of plants) [2, 4] | Resistance evaluation [2, 5] | Scores (pesticide damage) [2, 5] | further results
BnHPPDm-F383W-02: nucleotide sequence encoding Brassica napus HPPD with F383W; vector DBN11744 (nucleic acid, BnHPPDm-F383W-02 Nucleotide Sequence, vector DBN11744) DNA: ATGGGACATGAAAACGCGGCAGTGTGTGAAACTCAACAACATGATGACGCCGCCTCCCCGGGGTTTAAACTTGTCGGGTTCTCAAAATTTGTTAGGAAGAATCCAAAGTCTGACAAGTTCAAGGTGAAACGCTTCCACCACATCGAGTTCTGGTGCGGGGATGCAACAAATGTTTCACGCCGCTTTTCATGGGGACTAGGAATGAGGTTTAGCGCAAAGAGTGATCTCTCCACTGGTAATATGGTTCATGCGAGCTACTTGCTCACATCTGGAGACCTGAGATTCCTCTTCACCGCACCATATTCTCCCTCCCTGTCAGCTGGTGAAGCTCAGCCTTCAGCAACTGCAAGTATCCCTTCGTTTGATCATGCATCGTGCAGGTCTTTCTTCAGTTCACATGGACTCGGCGTCAGAGCAGTAGCGATCGAAGTAGAGGATGCTGAATCAGCTTTCTCCATATCTGTCGCCAACGGCGCGGTGCCTTCTTCTCCACCAAACGTCTTGAATGGTGCTGTTACCATTGCTGAGGTGAAGCTGTACGGAGATGTTGTTTTAAGATATGTTTCATATTACAATGGGACCGTTTCTTTTCTTCCCGGCTTTGAATCTGTTGATGATACTTCTTCCTTCCCTCTTGATTATGGGATCAGGCGGCTGGACCACGCCGTCGGCAACGTGCCGGAGTTAGGTCCTGCTTTGACATATCTTGCCGGCTTCACTGGATTCCATCAATTTGCAGAGTTTACGGCTGACGACGTGGGGACCGCGGAGAGTGGGCTGAACTCAGCAGTCTTGGCCAACAATGATGAAATGGTGCTCCTCCCCATCAATGAACCTGTGCATGGAACAAAGAGAAAGTCGCAGATTCAAACATTTTTAGAGCACAATGAGGGAGCTGGGCTACAGCACCTCGCATTGATGTCAGAAGATATTTTTCGAACGTTGAGGGAGATGCGGAAACGATCTGGTGTAGGCGGCTTTGACTTCATGCCATCCCCTCCGCCAACCTACTACAAGAACCTGAAGAAGAGGGTTGGAGACGTCCTTTCCGAGGAGCAAATTGAAGAATGTGAGGAGCTTGGAATTCTGGTGGACAGAGATGATCAAGGAACACTACTTCAGATCTTCACAAAACCATTGGGCGACAGGCCAACGATATGGATTGAGATCATTCAGCGCGTTGGATGCATGAAGCGTGATGAGGAAGGGAAGGTCTACCAGAGTGGCGGTTGTGGTGGATTTGGAAAAGGAAATTTTTCTGAGCTGTTCAAAAGCATAGAAGAGTATGAGAAAACATTGGAGGCCAAGCAGCTTGTTGGTTGA | 0 | 3 | 9 | 4 | 0 | 0 | 0 | 16 | 69 | 100 | non-resistant (non-resistant plants (scores 68-100)) | non-resistant (non-resistant plants (scores 68-100)) | Non-resistant | 94 | 0 | 0 | 3 | 13 | Non-resistant | 100 | Classification and statistics of the grade of pesticide damage: Grade 0 (number of plants) [2, 5]: 0; Classification and statistics of the grade of pesticide damage: Grade 1 (number of plants) [2, 5]: 0; Classification and statistics of the grade of pesticide damage: Grade 2 (number of plants) [2, 5]: 0; Classification and statistics of the grade of pesticide damage: Grade 3 (number of plants) [2, 5]: 16; Resistance evaluation ([3]; mesotrione 52.5 g ai/ha): Non-resistant; Scores ([3]; mesotrione 52.5 g ai/ha): 100; Grade 0 (classification and statistics of the grade of pesticide damage; number of plants) ([3]; mesotrione 52.5 g ai/ha): 0; Grade 1 (classification and statistics of the grade of pesticide damage; number of plants) ([3]; mesotrione 52.5 g ai/ha): 0; Grade 2 (classification and statistics of the grade of pesticide damage; number of plants) ([3]; mesotrione 52.5 g ai/ha): 0; Grade 3 (classification and statistics of the grade of pesticide damage; number of plants) ([3]; mesotrione 52.5 g ai/ha): 16; Resistance evaluation ([3]; mesotrione 105 g ai/ha): Non-resistant; Scores ([3]; mesotrione 105 g ai/ha): 100; Grade 0 (classification and statistics of the grade of pesticide damage; number of plants) ([3]; mesotrione 105 g ai/ha): 0; Grade 1 (classification and statistics of the grade of pesticide damage; number of plants) ([3]; mesotrione 105 g ai/ha): 0; Grade 2 (classification and statistics of the grade of pesticide damage; number of plants) ([3]; mesotrione 105 g ai/ha): 0; Grade 3 (classification and statistics of the grade of pesticide damage; number of plants) ([3]; mesotrione 105 g ai/ha): 16
GmHPPD-02: nucleotide sequence encoding wild-type Glycine max HPPD; vector DBN11746 (nucleic acid, GmHPPD-02 Nucleotide Sequence, vector DBN11746) DNA: ATGCCAATGTACACACCATCGCTCTCCGCCCCTTCTTCCAACCATATTCAGCCATCCGTGACTCTGCCTCTCTACATCACAACCACCAAGTTGAACCTGAAGCAGCAGCACCATACGACTCCTATGCCTATACCCATGTGCAATGAGATCCAAGCACAGGCTCAGGCACAAGCTCAACCCGGATTCAAACTCGTGGGATTCAAGAACTTCGTCCGTACCAATCCAAAATCTGACCGCTTCCAGGTGAACAGATTCCACCACATAGAGTTTTGGTGTACTGATGCAACGAATGCTTCGAGGAGGTTTTCATGGGGCTTAGGCATGCCGATTGTAGCAAAGTCAGACCTTTCTACAGGGAACCAAATTCATGCAAGCTATCTGCTCCGCTCAGGTGATTTGTCTTTCTTGTTCTCAGCTCCATATTCTCCATCATTATCTGCTGGGTCATCAGCAGCATCTAGTGCGTCGATCCCTAGCTTTGATGCCGCCACCTGCCTCGCCTTCGCCGCCAAACATGGATTTGGTGTTCGCGCCATTGCTCTTGAGGTTGCCGATGCCGAGGCTGCTTTTAGCGCCTCCGTCGCCAAGGGAGCTGAGCCTGCGTCACCTCCTGTTCTTGTTGATGATCGAACTGGTTTTGCTGAAGTGCGTCTTTACGGCGACGTGGTGCTCAGATATGTTAGTTACAAGGATGCTGCTCCTCAAGCGCCGCACGCTGATCCTTCAAGATGGTTTCTTCCGGGGTTTGAGGCCGCTGCTAGTTCATCTTCCTTCCCGGAGTTGGATTACGGCATACGGCGGCTTGACCATGCTGTCGGCAATGTTCCTGAGCTTGCTCCGGCGGTACGGTACTTGAAAGGTTTCTCCGGGTTCCATGAATTTGCAGAGTTCACGGCGGAAGATGTTGGAACAAGTGAAAGCGGATTGAATTCTGTTGTTTTGGCCAACAACAGTGAAACTGTTCTGCTCCCCCTCAATGAACCAGTTTATGGCACAAAGCGCAAGAGCCAGATTGAAACATATCTCGAGCACAATGAAGGCGCCGGCGTCCAGCATCTTGCTTTGGTGACTCATGATATCTTCACAACACTTAGGGAGATGAGGAAGAGGAGTTTCCTCGGCGGGTTTGAATTCATGCCCAGTCCCCCGCCGACCTACTATGCAAATCTGCACAACAGGGCTGCAGATGTGCTGACTGTAGACCAGATCAAGCAATGTGAAGAACTTGGAATTTTAGTGGATAGAGACGACCAAGGTACACTACTTCAAATATTCACCAAACCAGTCGGTGACAGACCAACAATTTTCATCGAGATTATACAAAGAATTGGATGCATGGTCGAGGATGAAGAAGGGAAGGTGTACCAGAAGGGAGCATGTGGTGGTTTTGGGAAAGGAAATTTTTCTGAGCTGTTTAAATCCATCGAGGAATATGAGAAAACCTTAGAAGCTAAAAGAACTGCATGA | 0 | 0 | 0 | 16 | 0 | 0 | 0 | 16 | 100 | 100 | non-resistant (non-resistant plants (scores 68-100)) | non-resistant (non-resistant plants (scores 68-100)) | Non-resistant | 100 | 0 | 0 | 0 | 16 | Non-resistant | 100 | Classification and statistics of the grade of pesticide damage: Grade 0 (number of plants) [2, 5]: 0; Classification and statistics of the grade of pesticide damage: Grade 1 (number of plants) [2, 5]: 0; Classification and statistics of the grade of pesticide damage: Grade 2 (number of plants) [2, 5]: 0; Classification and statistics of the grade of pesticide damage: Grade 3 (number of plants) [2, 5]: 16; Resistance evaluation ([3]; mesotrione 52.5 g ai/ha): Non-resistant; Scores ([3]; mesotrione 52.5 g ai/ha): 100; Grade 0 (classification and statistics of the grade of pesticide damage; number of plants) ([3]; mesotrione 52.5 g ai/ha): 0; Grade 1 (classification and statistics of the grade of pesticide damage; number of plants) ([3]; mesotrione 52.5 g ai/ha): 0; Grade 2 (classification and statistics of the grade of pesticide damage; number of plants) ([3]; mesotrione 52.5 g ai/ha): 0; Grade 3 (classification and statistics of the grade of pesticide damage; number of plants) ([3]; mesotrione 52.5 g ai/ha): 16; Resistance evaluation ([3]; mesotrione 105 g ai/ha): Non-resistant; Scores ([3]; mesotrione 105 g ai/ha): 100; Grade 0 (classification and statistics of the grade of pesticide damage; number of plants) ([3]; mesotrione 105 g ai/ha): 0; Grade 1 (classification and statistics of the grade of pesticide damage; number of plants) ([3]; mesotrione 105 g ai/ha): 0; Grade 2 (classification and statistics of the grade of pesticide damage; number of plants) ([3]; mesotrione 105 g ai/ha): 0; Grade 3 (classification and statistics of the grade of pesticide damage; number of plants) ([3]; mesotrione 105 g ai/ha): 16
